Substrate: CC(=O)N[C@H]1[C@H](Oc2ccc3c(C)cc(=O)oc3c2)O[C@H](CO)[C@@H](O)[C@@H]1O
Experiment: fluorescence, 4MU release, Michaelis-Menten
Assay type: biochemical, Bacteroides thetaiotaomicron
Conditions: unmodified wild-type enzyme
From the text: fluorescence, 4MU release, Michaelis-Menten on BtGH84

B1: BtGH84 (Bacteroides thetaiotaomicron VPI-5482) (protein)
chain: QNVSLQPPPQQLIVQNKTIDLPAVYQLNGGEEANPHAVKVLKELLSGKQSSKKGMLISIGEKGDKSVRKYSRQIPDHKEGYYLSVNEKEIVLAGNDERGTYYALQTFAQLLKDGKLPEVEIKDYPSVRYRGVVEGFYGTPWSHQARLSQLKFYGKNKMNTYIYGPKDDPYHSAPNWRLPYPDKEAAQLQELVAVANENEVDFVWAIHPGQDIKWNKEDRDLLLAKFEKMYQLGVRSFAVFFDDISGEGTNPQKQAELLNYIDEKFAQVKPDINQLVMCPTEYNKSWSNPNGNYLTTLGDKLNPSIQIMWTGDRVISDITRDGISWINERIKRPAYIWWNFPVSDYVRDHLLLGPVYGNDTTIAKEMSGFVTNPMEHAESSKIAIYSVASYAWNPAKYDTWQTWKDAIRTILPSAAEELECFAMHNSDLGPNGHGYRREESMDIQPAAERFLKAFKEGKNYDKADFETLQYTFERMKESADILLMNTENKPLIVEITPWVHQFKLTAEMGEEVLKMVEGRNESYFLRKYNHVKALQQQMFYIDQTSNQNPYQPGVKTATRVIKPLIDRTFATVVKFFNQKFNAHLDATTDYMPHKMISNVEQIKNLPLQVKANRVLISPANEVVKWAAGNSVEIELDAIYPGENIQINFGKDAPCTWGRLEISTDGKEWKTVDLKQKESRLSAGLQKAPVKFVRFTNVSDEEQQVYLRQFVLTIEKK
notes: recombinant purified enzyme
- Km: 1460 ± 220 µM
- kcat: 67 ± 5 s⁻¹
- kcat/Km: 46000 ± 5900 M⁻¹ s⁻¹
